T1: human Siglec-15 V-set domain (human, UniProt Q6ZMC9 39-165)
T1 construct: The His tag was cleaved with thrombin before use; also called human V-set domain
T1 sequence: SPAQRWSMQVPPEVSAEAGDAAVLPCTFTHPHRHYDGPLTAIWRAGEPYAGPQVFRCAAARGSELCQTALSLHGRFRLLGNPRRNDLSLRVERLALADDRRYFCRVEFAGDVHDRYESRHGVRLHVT


Columns and labels:
human Siglec-15-Fc [1] = target: T2, human Siglec-15-Fc (human); assay: ELISA, human Siglec-15-Fc immobilized at 5 µg/ml, antibody 1.28 to 20,000 ng/ml
T2 construct: Expressed in 293-F cells, purified on Protein A; also called soluble human Siglec-15-Fc; human Siglec-15-Fc protein
T2 sequence (chain, as listed by the source limits assumed): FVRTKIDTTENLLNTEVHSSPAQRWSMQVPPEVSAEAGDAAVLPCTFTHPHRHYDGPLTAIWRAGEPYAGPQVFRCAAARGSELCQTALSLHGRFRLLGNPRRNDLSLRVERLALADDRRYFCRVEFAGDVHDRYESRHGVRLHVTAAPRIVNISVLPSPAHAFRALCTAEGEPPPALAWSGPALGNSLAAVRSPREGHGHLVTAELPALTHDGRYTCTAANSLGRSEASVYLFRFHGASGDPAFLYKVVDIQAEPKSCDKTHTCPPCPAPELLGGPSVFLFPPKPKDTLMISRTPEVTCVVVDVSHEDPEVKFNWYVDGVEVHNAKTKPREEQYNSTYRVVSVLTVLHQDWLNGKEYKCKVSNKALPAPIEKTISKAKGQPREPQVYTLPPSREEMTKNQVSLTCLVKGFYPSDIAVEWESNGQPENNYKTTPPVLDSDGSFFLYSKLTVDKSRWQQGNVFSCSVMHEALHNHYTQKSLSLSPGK
Procedure: The property of the rat anti-mouse Siglec-15 monoclonal antibody binding to human Siglec-15 protein was evaluated by an ELISA method. The human Siglec-15-Fc protein (subjected to replacement with A-PBS) produced in b) of Example 12 was diluted to 5 μg/ml with 0.1 M sodium carbonate buffer (pH 9.5), and the resulting solution was added to a 96-well plate (manufactured by Nalge Nunc International, Inc., Cat. No. 430341) at 100 μl/well. After the plate had been left at room temperature for 1 hour, the solution was removed and a washing buffer (phosphate-buffered saline containing 0.05% Tween 20) was added at 300 μl/well and then removed. After this washing procedure had been performed one more time, phosphate-buffered saline containing 25% BlockAce (manufactured by Dainippon Sumitomo Pharma Co., Ltd.) was added at 200 μl/well, and the plate was left at room temperature for 1 hour, whereby blocking was performed. The liquid was removed, and the plate was washed twice with 300 μl/well of the washing buffer. […] After developing the color, an absorbance at 492 nm was measured using a microplate reader (manufactured by Nihon Molecular Devices Corporation).

[2] = target: T1, human Siglec-15 V-set domain; assay: competitive ELISA: V-set domain (0 to 20 µg/ml) pre-mixed with #32A1 (2 µg/ml), then added to captured human Siglec-15-Fc
Procedure: In a 96-well maxi-sorp plate (manufactured by Nunc, Inc., model number: 442404), 100 μl of a goat anti-human Fc antibody (Jackson ImmunoResearch, Inc., model number: 109-005-098) (1.25 μg/ml) was added to each well and immobilized overnight at 4° C. After the 96-well maxi-sorp plate was washed twice with PBS, 100 μl of the soluble human Siglec-15-Fc (1 μg/ml) was added to each well and immobilized at room temperature for 1 hour. Thereafter, 300 μl of a 5% skim milk/PBS solution was added to each well, and blocking of the wells was performed at room temperature for 3 hours. In the meantime, 2 μg/ml of the rat anti-mouse Siglec-15 monoclonal antibody #32A1 was mixed with an equivalent amount of 0, 0.032, 0.16, 0.8, 4, or 20 μg/ml of the human Siglec-15 V-set domain, and a reaction was allowed to proceed at room temperature for 1.5 hours. After the 96-well maxi-sorp plate had been washed twice with PBS, 100 μl of the mixed solution of the rat anti-mouse Siglec-15 monoclonal antibody #32A1 and the human Siglec-15 V-set domain was added thereto, and a reaction was allowed to proceed at room temperature for 1 hour. […] Then, 100 μl of a reaction stopping solution was added thereto, and an absorbance at 405 nm was measured.

human Siglec-15-Fc [3] = target: T2, human Siglec-15-Fc; assay: ELISA, human Siglec-15-Fc immobilized at 1 µg/ml, antibody 1 to 0.004 µg/ml, fluorescence read-out

binding result (human Siglec-15-Fc [1]) | binding result [2] | binding result (human Siglec-15-Fc [3]) | Binder
binds | binds |  | rat anti-mouse Siglec-15 monoclonal antibody #32A1 (antibody, rat IgG2a, V domains shown, Whole rat IgG purified from nude mouse ascites; Cloning primers were designed from the rat IgG2a heavy chain and kappa light chain constant regions; also called #32A1 antibody; rat #32A1 antibody) VH: EVQILETGGGLVKPGGSLRLSCATSGFNFNDYFMNWVRQAPEKGLEWVAQIRNKIYTYATFYAESLEGRVTISRDDSESSVYLQVSSLRAEDTAIYYCTRSLTGGDYFDYWGQGVMVTVSL VL: DIVLTQSPALAVSLGQRATISCRASQSVTISGYSFIHWYQQKPGQQPRLLIYRASNLASGIPARFSGSGSGTDFTLTINPVQADDIATYFCQQSRKSPWTFAGGTKLELRRA
 |  | binds | h#32A1-T1 (antibody, human IgG1, kappa, V domains shown, Human IgG1 / kappa constant regions; also called humanized antibody of rat anti-mouse Siglec-15 #32A1 T1; h#32A1-T1H / h#32A1-T1L) VH: EVQLVESGGGLVQPGGSLRLSCAASGFNFNDYFMNWVRQAPGKGLEWVAQIRNKIYTYATFYAESLEGRFTISRDNAKNSLYLQMNSLRAEDTAVYYCARSLTGGDYFDYWGQGTLVTVSS VL: DIVMTQSPDSLAVSLGERATINCRASQSVTISGYSFIHWYQQKPGQPPKLLIYRASNLASGVPARFSGSGSGTDFTLTISSLQAEDVAVYYCQQSRKSPWTFGGGTKVEIKR
 |  | binds | h#32A1-T6 (antibody, human IgG1, kappa, V domains shown, Human IgG1 / kappa constant regions; also called humanized antibody of rat anti-mouse Siglec-15 #32A1 T6; h#32A1-T6H / h#32A1-T6L) VH: EVQVVESGGGLVQPGGSLRLSCATSGFNFNDYFMNWVRQAPEKGLEWVAQIRNKIYTYATFYAESLEGRVTISRDNSKSTVYLQMSSLRAEDTAVYYCTRSLTGGDYFDYWGQGTLVTVSS VL: DIVLTQSPDSLAVSLGERATISCRASQSVTISGYSFIHWYQQKPGQPPRLLIYRASNLASGIPARFSGSGSGTDFTLTISSLQAEDVATYFCQQSRKSPWTFAGGTKVEIKR
 |  | binds | h#32A1-T3 (antibody, human IgG1, kappa, V domains shown, Human IgG1 / kappa constant regions; also called humanized antibody of rat anti-mouse Siglec-15 #32A1 T3; h#32A1-T3H / h#32A1-T3L) VH: EVQIVESGGGLVQPGGSLRLSCATSGFNFNDYFMNWVRQAPEKGLEWVAQIRNKIYTYATFYAESLEGRVTISRDDSESSVYLQMSSLRAEDTAVYYCTRSLTGGDYFDYWGQGTLVTVSS VL: DIVLTQSPDSLAVSLGERATISCRASQSVTISGYSFIHWYQQKPGQQPRLLIYRASNLASGIPARFSGSGSGTDFTLTISSLQAEDVATYFCQQSRKSPWTFAGGTKVEIKR
 |  | binds | h#32A1-T5 (antibody, human IgG1, kappa, V domains shown, Human IgG1 / kappa constant regions; also called humanized antibody of rat anti-mouse Siglec-15 #32A1 T5; h#32A1-T5H / h#32A1-T5L) VH: EVQVVESGGGLVQPGGSLRLSCATSGFNFNDYFMNWVRQAPGKGLEWVAQIRNKIYTYATFYAESLEGRFTISRDNSKSTVYLQMNSLRAEDTAVYYCTRSLTGGDYFDYWGQGTLVTVSS VL: DIVLTQSPDSLAVSLGERATINCRASQSVTISGYSFIHWYQQKPGQPPKLLIYRASNLASGIPARFSGSGSGTDFTLTISSLQAEDVATYYCQQSRKSPWTFGQGTKVEIKR
 |  | binds | h#32A1-T2 (antibody, human IgG1, kappa, V domains shown, Human IgG1 / kappa constant regions; also called humanized antibody of rat anti-mouse Siglec-15 #32A1 T2; h#32A1-T2H / h#32A1-T2L) VH: EVQLVESGGGLVQPGGSLRLSCAASGFNFNDYFMNWVRQAPEKGLEWVAQIRNKIYTYATFYAESLEGRVTISRDNAKNSLYLQMSSLRAEDTAVYYCARSLTGGDYFDYWGQGTLVTVSS VL: DIVMTQSPDSLAVSLGERATISCRASQSVTISGYSFIHWYQQKPGQPPRLLIYRASNLASGVPARFSGSGSGTDFTLTISSLQAEDVAVYFCQQSRKSPWTFAGGTKVEIKR

— patent publication US20110268733A1 (Daiichi Sankyo, published 2011)
